# Assay results taken from a protein production outcome set (Wang et al. 2014).
# Assay: label from the status in PepcDB records
row,Sequence,protein production
1,KFGELREISGNQYVNEVTNAEKDLWVVIHLYRSSVPMCLVVNQHLSVLARKFPETKFVKAIVNSCIEHYHDNCLPTIFVYKNGQIEGKFIGIIECGGINLKLEELEWKLSEVGAIQSDLEEN,not failed
2,KGTLRRITEIAEVSGIEGESIQLNFLYKYDPAKDELIRTEVPSRFIQTLSYHTGLSIEELKWEIEKRRLILDWMIEKGIRRIDEVGYYIKEFYIDEEELLKKIE,failed
3,KKKSIPQPTNALKSFNWSKLPENKLEGTVWTEIDDTKVFKILDLEDLERTFSAYQRQQDFFVNSNSKQKEADAIDDTLSSKLKVKELSVIDGRRAQNCNILLSRLKLSNDEIKRAILTMDEQEDLPKDMLEQLLKFVPEKSDIDLLEEHKHELDRMAKADRFLFEMSRINHYQQRLQSLYFKKKFAERVAEVKPKVEAIRSGSEEVFRSGALKQLLEVVLAFGNYMNKGQRGNAYGFKISSLNKIADTKSSIDKNITLLHYLITIVENKYPSVLNLNEELRDIPQAAKVN,failed
4,KKPLSVFKGPLLHISPAEELYFGSIESGEKKTLIVLTNVTKNIVAFKVRTTAPEKYRVKPSNSSCDPGASIDIIVSPHGGLTVSAQDRFLIMAAEMEQSSGTGPAELSQFWKEVPRNKVMEHRLRCHTVESSKPNSLML,not failed
5,KNASVITVGNEILKGRTVNTNAAFIGNFLTYHGYQVRRGFVVMDDLDEIGWAFRVALEVSDLVVSSGGLGPTFDDMTVEGFAKCIGQDLRIDEDALAMIKKKYGQADLTPQRLKMAKIPPSCRPIENPVGTAPGLICAVGGKKVIILPGVPKEMEALLKAMEKDIIIPD,not failed
6,KNFNPPTRRNWESNYFGMPLQDLVTAEKPIPLFVEKCVEFIEDTGLCTEGLYRVSGNKTDQDNIQKQFDQDHNINLVSMEVTVNAVAGALKAFFADLPDPLIPYSLHPELLEAAKIPDKTERLHALKEIVKKFHPVNYDVFRYVITHLNRVSQQHKINLMTADNLSICFWPTLMRPDFENREFLSTTKIHQSVVETFIQQCQFFFYNGEIVE,not failed
7,KNIVVDFTEYNPLHNGHKYCMDFGKSEGLFISVIPGPLERSGRGIPYLVNRHIRAEMALLAGADLVVEGPPMGIMGSGQYMQCLIKIFSALNGDIIPRGYIEEETMERVINSINNGNHIKIKPYNISCIETREKLGEKLEIDNYVIASMSYTIYKLKENFPKWNPKFKFIERIEGISGTKIREGVFNNNFESIKHMLPITTIDVFKNFGDNLSEIILKRNEEMVLDTVNNFDLNKYLPENISEKLNEKEYYESIE,not failed
8,KNRIGTKALNFTYTLASGAQGSLYQLKAEYLLLFINNPGCQACTETIEGLKNAPIINQLLQEKKLVLLSIYPDEELDEWKKHLSEFPNEWINGYDKKFTIKEEQVYDLKAIPTLYLLDKDKTVLLKDATAPAIEAYLMQH,not failed
9,KPIPLAVIVVLGCFALGLGGIIGFVHKGEDYQAYQKLQWHTLAPEKIAPLVAQGYTVFVDITSDWCSICQTNKAEVTHREQVVNALMADDIILMQGNWSEADNTIAGYMQYEGIPGTPYNKIYGPRNPNGIVLPSKLTIEAVINGLAQAKAL,failed
10,KQAEMEVKRESYARERSTVARIQFRLPDGSSFTNQFPSDAPLEEARQFAAQTVGNTYGNFSLATMFPRREFTKEDYKKKLLDLELAPSASVVLLP,failed
11,KQLLTLKIKCSNQPERQILEKQLPDSMTVQKVKGLLSRLLKVPVSELLLSYESSKMPGREIELENDLQPLQFYSVENGDCLLVR,not failed
12,KREHAKQHGMIRTEITGAEIAEEMEKERRLFQLQMCEYLIKVNEIKTKKGVDLLQNLIKYYHAQCNFFQDGLKTADKLKQYIEKLAADLYNIKQTQDEEKKQLTALRDLIKSSLQLDQKESRRDSQSRQGGYSMHQLQGNKEYGSEKKGYLLKKSDGIRKVWQRRKCSVKNGILTISHATSNRQPAKLNLLTCQVKPNAEDKKSFDLISHNRTYHFQAEDEQDYVAWISVLTNSKEEALTMAFRGEQSAGENSLEDLTKAIIEDVQRLPGNDICCDCGSSEPTWLSTNLGILTCIECSGIHREMGVHISRIQSLELDKLGTSELLLAKNVGNNSFNDIMEANLPSPSPKPTPSSDMTVRKEYITAKYVDHRFSRKTCSTSSAKLNELLEAIKSRDLLALIQVYAEGVELMEPLLEPGQELGETALHLAVRTADQTSLHLVDFLVQNCGNLDKQTALGNTVLHYCSMYSKPECLKLLLRSKPTVDIVNQAGETALDIAKRLKATQCEDLLSQAKSGKFNPHVHVEYEWNLRQEEIDESDDDLDDKPSPIKKERSPRPQSFCHSSSISPQDKLALPGFSTPRDKQRLSYGAFTNQIFVSTSTDSPTSPTTEAPPLPPRNAGKGPTGPPSTLPLSTQTSSGSSTLSKKRPPPPPPGHKRTLSDPPSPLPHGPPNKGAVPWGNDGGPSSSSKTTNKFEGLSQQSSTSSAKTALGPRVLPKLPQKVALRKTDHLSLDKATIPPEIFQKSSQLAELPQKPPPGDLPPKPTELAPKPQIGDLPPKPGELPPKPQLGDLPPKPQLSDLPPKPQMKDLPPKPQLGDLLAKSQTGDVSPKAQQPSEVTLKSHPLDLSPNVQSRDAIQKQASEDSNDLTPTLPETPVPLPRKINTGKNKVRRVKTIYDCQADNDDELTFIEGEVIIVTGEEDQEWWIGHIEGQPERKGVFPVSFVHILSD,not failed
13,KRFESPSVIKPNTLTNQQLIETCDQLIENAVKHHLVADVPVGLYLSGGIDSTLLLSKIRKLGHLNFPTFTIANSSREQAFGTRDFEFARLASKLYNSDHHEVSVHAEMLQDLPAFVSMIDQPIGDSALFLTHILSKEAGQHVRVALNGAGADELFAGYNRHSAYKSYLNNLLHKNLAITLIKSTYNILPDGGNHSLKKVFRLWNKFTGMMDVDPIKTCHNFSSSEYFIEKNTSIEVDDKSYEDLSYYLYYCLRNDRTKYLISDILALTDKMTMRSSIEARVPYLDQELRRFVESLDPSVLLKNGRKWILKEVLLRNGGETFLNRPKEGFGMPFGYWLKLPVNKNFVEKLTNKNHPIYEWVPYQTIKNLVDWHLGSKRDCSSELWSVLLLMHWYEKE,failed
14,KRITRPGNTDDPSGGNKVLLLSIQNPLYPITVDVLYTVCNPVGKVQRIVIFKRNGIQAMVEFESVLCAQKAKAALNGADIYAGCCTLKIEYARPTRLNVIRNDNDSWDYTKPYLGRR,not failed
15,KRQKIHLGDRSQKCSKCGIIFIRRSTLSRRKTPMCEKCRKDSCQEAALNKDEGNESGKKT,not failed
16,KTPADNIETADLSASVPTRPAEPERKTLADYGGYPSALDAVKQKNDAAVAAYLENAGDSAMAENVRNEWLKSLGARRQWTLFAQEYAKLEPAGRAQEVECYADSSRNDYTRAAELVKNTGKLPSGCTKLLEQAAASGLLDGNDAWRRVRGLLAGRQTTDARNLAAALGSPFDGGTQGSREYALLNVIGKEARKSPNAAALLSEMESGLSLEQRSFAWGVLGHYQSQNLNVPAALDYYGKVADRRQLTDDQIEWYARAALRARRWDELASVISHMPEKLQKSPTWLYWLARSRAATGNTQEAEKLYKQAAATGRNFYAVLAGEELGRKIDTRNNVPDAGKNSVRRMAEDGAVKRALVLFQNSQSAGDAKMRRQAQAEWRFATRGFDEDKLLTAAQTAFDHGFYDMAVNSAERTDRKLNYTLRYISPFKDTVIRHAQNVNVDPAWVYGLIRQESRFVIGAQSRVGAQGLMQVMPATAREIAGKIGMDAAQLYTADGNIRMGTWYMADTKRRLQNNEVLATAGYNAGPGRARRWQADTPLEGAVYAETIPFSETRDYVKK,failed
17,KVGVLVAAHGMSTASSMAQVVGQLLDDYDVQAFDMPLDMDPSVAYDHVKRRVEKLDSGKGILLLVDMGSLTTFGERIQQETGIATRTIDMVTTPVVLEAVRKASLVDSDLDSMYQELVGFKGYSRISRNLPTDSQ,failed
18,KVIIAIDAGHGGQDPGAIGPNGTKEKNVTIAIARKLRALLNADPQFKPVLTRDGDYFISVMGRSEVARKQNANFLVSIHADAAPNRDATGASVWVLSNRRANSEMAGWLEQHEKQSELLGGAGDVLANSQADPYLSQAVLDLQFGHSQRVGYDVATNVLSQLQRIGNLHKRRPEHASLGVLRSPDIPSILVETGFISNNGEERLLGSDDYQEQIAEAIYNGLRNYFMQHPLQSAPRGEAAQTASAAAPGGMLIN,failed
19,KVVLYARVSSKQKDELVNQVKYLEEQVKEYDLVITDIGSGLNMKRKGFLKLLRMILNNEVSRVVIAYPDRLVRFGFEILEETCKAHGCEIVVLNQEEKEEELVEDLISVLVSFSEKLHGMRSHEYEKVKKCAEELKN,failed
20,KYANGTFFTYRPEAWDWMYTVAEEFDTIVAGLFGLITGGLLSVDSIAGEFENGTISRLYSLPINRWEIYFGKVIEKI,failed
21,KYNPVVNPERALERRNWILGRMLQLGYINQTQYQQAVAEPINLDMPDRGVSNRYPYIGEMVRAELVEKFGEQAVDSGY,failed
22,KYPFLREAGSSFKDRDVTKMSDLIATWDGQDIKGPALIGVPLSKSSISHSGASFAPGTIRQALKHSSAYSAELGEHVVSELLYDLGDIDIHVTDIVKSHHHIFQTMHALLSDHPDWVPLILGGDNSISYSTIKAIAQTKGTTAVIQFDAHHDVRNTEDGGPTNGTPFRRLLDEEIIEGQHLIQLGIREFSNSQAYEAYAKKHNVNIHTMDMIREKGLIPTIKEILPVVQDKTDFIFISVDMDVLDQSHAPGCPAIGPGGLYTDELLEAVKYIAQQPNVAGIEIVEVDPTLDFRDMTSRAAAHVLLHALK,failed
23,LAELFEKAAAHLQGLIQVASREQLLYLYARYKQVKVGNCNTPKPSFFDFEGKQKWEAWKALGDSSPSQAMQEYIAVVKKLDPGWNPQIPEKKGKEA,not failed
24,LDKMSKKTRQAIRTSKNKGVDIQFGSHELLEDFAELMKKTEDRKGINLRGIDYYQKLLDTYPNNSYITMASLDVAKRLEKIEKECQIAQSERIKSLELNREKKVKQHQGTIDRLNKEIDFLKEAQKAYDRDIIPLAATLTLEFGNTSENIYAGMDDYFKSYSAPIYTWFETAQRAFERGNIWQNMGGIENDLSGGLYHFKSKFEPII,failed
25,LDQILRATVEEVRAFLGTDRVKVYRFDPEGHGTVVAEARGGERLPSLLGLTFPAGDIPEEARRLFRLAQVRVIVDVEAQSRSISQPESWGLSARVPLGEPLQRPVDPCHVHYLKSMGVASSLVVPLMHHQELWGLLVSHHAEPRPYSQEELQVVQLLADQVSIAIAQAELSL,not failed
26,LDRAYLRVENQRYRDKLEAANRELQASLNLLQEDQNAGRQVQMNMLPVTPWSIEGLEFSHRIIPSLYLSGDFVDYFRVDERRVAFYLADVSGHGASSAFVTVLLKFMTTRLLYESRRNGTLPEFKPSEVLAHINRGLINTKLGKHVTMLGGVIDLEKNSLTYSIGGHLPLPVLFVEGQAGYLEGRGLPVGLFDDATYDDRVMELPPSFSLSLFSDGILDVLPGATLKEKEASLPEQVAAAGGTLDGLRQVFGLANLAEMPDDIALLVLSRNLA,failed
27,LDSELELPAGWEKIEDPVYGIYYVDHINRKTQYENPVLEAKRKKQLE,not failed
28,LEEVQLVVEPEGGAVAPGGTVTLTCEVPAQPSPQIHWMKDGVPLPLPPSPVLILPEIGPQDQGTYSCVATHSSHGPQESRAVSISIIEPGEEGPTAGSVGGSGLGTLALALGILGGLGTAALLIGVILWQRRQRRGEERKAPENQEEEEERAELNQSEEPEAGESSTGGP,not failed
29,LEKNDLVYMQRAFELNDKVAKDIMIDRTQLVVIDITSTVKEALNVYLQERFSRLPVVADNDKDKVLGYVYNYDLTRQQQVDSSVRVDKLIRDISTTPETTPITQVLQQMIKKRTPIVVVVDEYGGTSGIITDKDIYEEL,failed
30,LELLEALSLPVWIFDIDHRRVFWANEAALQVWGAGSLLELQTRDMARDMSVSVAQRLAQYQQDFEREGASFVESWTLYPNGRPSVLKVKFRGIRVNGRMLMFCEAQN,failed
